Data taken from patent US20140087995A1 (published 2014).
Numbered stars: 1 amine (or outer) side, 2 acyl side, 3 side chain; on linkers, the order of the positions; unused ones are H or OH. Bridge positions count the residues as written; N and C are the ends. Side chains are listed from the residue outwards. Ends that are not written are not given here. * marks the point of attachment. C18 diacid = O=C(O)CCCCCCCCCCCCCCCCC(=O)*; C16 diacid = O=C(O)CCCCCCCCCCCCCCC(=O)*; γGlu = O=C(O)[C@H](CCC(=O)[*:2])N[*:1]

T1: human amylin 3(a) receptor (human calcitonin receptor co-expressed with RAMP-3) (human, UniProt P30988 25-474; O60896 24-148, limits assumed)
T1 sequence (looked up) 1: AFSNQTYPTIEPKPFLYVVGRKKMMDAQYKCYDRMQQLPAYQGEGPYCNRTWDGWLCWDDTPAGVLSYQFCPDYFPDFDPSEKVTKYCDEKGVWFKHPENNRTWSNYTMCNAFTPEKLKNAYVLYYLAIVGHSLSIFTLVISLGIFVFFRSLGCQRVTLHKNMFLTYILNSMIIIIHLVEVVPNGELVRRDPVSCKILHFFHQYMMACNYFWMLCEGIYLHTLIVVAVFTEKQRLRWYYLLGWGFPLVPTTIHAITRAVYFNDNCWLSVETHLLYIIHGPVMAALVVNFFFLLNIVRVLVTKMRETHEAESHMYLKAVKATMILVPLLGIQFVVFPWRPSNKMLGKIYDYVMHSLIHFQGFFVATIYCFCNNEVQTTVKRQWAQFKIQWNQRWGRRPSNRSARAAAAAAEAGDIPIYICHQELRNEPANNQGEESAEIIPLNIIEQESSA
T1 sequence (looked up) 2: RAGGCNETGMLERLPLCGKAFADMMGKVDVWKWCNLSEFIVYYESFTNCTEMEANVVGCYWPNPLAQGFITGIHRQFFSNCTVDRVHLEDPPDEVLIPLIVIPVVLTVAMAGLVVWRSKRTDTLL

T2: human calcitonin receptor (human, UniProt P30988 25-474)
T2 sequence (looked up): T1 sequence (looked up) 1

B1: N^ε1-[(4S)-4-carboxy-4-(15-carboxypentadecanoylamino)butanoyl]-[Arg17,Pro21,Pro27,His34]-h-amylin (peptide)
peptide: K([γGlu-C16 diacid])CNTATCATQRLANFLRHSSPNFGAIPSSTNVGHNTY-NH2
modifications: disulfide 2-7; N-terminus assumed
SMILES: CC[C@H](C)[C@H](NC(=O)[C@H](C)NC(=O)CNC(=O)[C@H](Cc1ccccc1)NC(=O)[C@H](CC(N)=O)NC(=O)[C@@H]1CCCN1C(=O)[C@H](CO)NC(=O)[C@H](CO)NC(=O)[C@H](Cc1c[nH]cn1)NC(=O)[C@H](CCCNC(=N)N)NC(=O)[C@H](CC(C)C)NC(=O)[C@H](Cc1ccccc1)NC(=O)[C@H](CC(N)=O)NC(=O)[C@H](C)NC(=O)[C@H](CC(C)C)NC(=O)[C@H](CCCNC(=N)N)NC(=O)[C@H](CCC(N)=O)NC(=O)[C@@H](NC(=O)[C@H](C)NC(=O)[C@@H]1CSSC[C@H](NC(=O)[C@@H](N)CCCCNC(=O)CC[C@H](NC(=O)CCCCCCCCCCCCCCC(=O)O)C(=O)O)C(=O)N[C@@H](CC(N)=O)C(=O)N[C@@H]([C@@H](C)O)C(=O)N[C@@H](C)C(=O)N[C@@H]([C@@H](C)O)C(=O)N1)[C@@H](C)O)C(=O)N1CCC[C@H]1C(=O)N[C@@H](CO)C(=O)N[C@@H](CO)C(=O)N[C@H](C(=O)N[C@@H](CC(N)=O)C(=O)N[C@H](C(=O)NCC(=O)N[C@@H](Cc1c[nH]cn1)C(=O)N[C@@H](CC(N)=O)C(=O)N[C@H](C(=O)N[C@@H](Cc1ccc(O)cc1)C(N)=O)[C@@H](C)O)C(C)C)[C@@H](C)O
B2: N^ε1-[(4S)-4-carboxy-4-(17-carboxyheptadecanoylamino)butanoyl]-[Arg17,Pro21,Pro27,His34]-h-amylin (peptide)
peptide: K([γGlu-C18 diacid])CNTATCATQRLANFLRHSSPNFGAIPSSTNVGHNTY-NH2
modifications: disulfide 2-7; N-terminus assumed
SMILES: CC[C@H](C)[C@H](NC(=O)[C@H](C)NC(=O)CNC(=O)[C@H](Cc1ccccc1)NC(=O)[C@H](CC(N)=O)NC(=O)[C@@H]1CCCN1C(=O)[C@H](CO)NC(=O)[C@H](CO)NC(=O)[C@H](Cc1c[nH]cn1)NC(=O)[C@H](CCCNC(=N)N)NC(=O)[C@H](CC(C)C)NC(=O)[C@H](Cc1ccccc1)NC(=O)[C@H](CC(N)=O)NC(=O)[C@H](C)NC(=O)[C@H](CC(C)C)NC(=O)[C@H](CCCNC(=N)N)NC(=O)[C@H](CCC(N)=O)NC(=O)[C@@H](NC(=O)[C@H](C)NC(=O)[C@@H]1CSSC[C@H](NC(=O)[C@@H](N)CCCCNC(=O)CC[C@H](NC(=O)CCCCCCCCCCCCCCCCC(=O)O)C(=O)O)C(=O)N[C@@H](CC(N)=O)C(=O)N[C@@H]([C@@H](C)O)C(=O)N[C@@H](C)C(=O)N[C@@H]([C@@H](C)O)C(=O)N1)[C@@H](C)O)C(=O)N1CCC[C@H]1C(=O)N[C@@H](CO)C(=O)N[C@@H](CO)C(=O)N[C@H](C(=O)N[C@@H](CC(N)=O)C(=O)N[C@H](C(=O)NCC(=O)N[C@@H](Cc1c[nH]cn1)C(=O)N[C@@H](CC(N)=O)C(=O)N[C@H](C(=O)N[C@@H](Cc1ccc(O)cc1)C(N)=O)[C@@H](C)O)C(C)C)[C@@H](C)O

What was measured:
[1] = biological target: T1, human amylin 3(a) receptor (human …); test: cell-based or functional assay
[2] = biological target: T2, human calcitonin receptor; test: cell-based or functional assay

| Binder | hAmylin-R funct. EC50 [1] | Ratio hCT/hAmylin funct. [2] | hCTR funct. EC50 [2] |
| --- | --- | --- | --- |
| B1 | 0.034 nM | 65.1 | 2.21 nM |
| B2 | 0.096 nM | 60.9 | 5.85 nM |
